Test results: patent publication US6994856 (Genentech, dated 2006)
Values belong to the molecule of their own block, whether it stands above or below them. gD epitope tag = herpes gD epitope tag left after the gD signal sequence; Fc (human IgG1) = Fc portion of human IgG1

Columns and labels:
[1] = target: T1, ErbB4.Fc (UniProt Q15303 26-651, limits assumed); test: displacement of 125I-NRG3^EGF.Fc from immobilized ErbB4.Fc by NRG1^EGF
T1 construct: also called soluble form of ErbB4 receptor; immobilized soluble ErbB4 receptor; not shown: Fc part, not described; the protein was captured on the plate by goat anti-human antibody
T1 sequence (looked up): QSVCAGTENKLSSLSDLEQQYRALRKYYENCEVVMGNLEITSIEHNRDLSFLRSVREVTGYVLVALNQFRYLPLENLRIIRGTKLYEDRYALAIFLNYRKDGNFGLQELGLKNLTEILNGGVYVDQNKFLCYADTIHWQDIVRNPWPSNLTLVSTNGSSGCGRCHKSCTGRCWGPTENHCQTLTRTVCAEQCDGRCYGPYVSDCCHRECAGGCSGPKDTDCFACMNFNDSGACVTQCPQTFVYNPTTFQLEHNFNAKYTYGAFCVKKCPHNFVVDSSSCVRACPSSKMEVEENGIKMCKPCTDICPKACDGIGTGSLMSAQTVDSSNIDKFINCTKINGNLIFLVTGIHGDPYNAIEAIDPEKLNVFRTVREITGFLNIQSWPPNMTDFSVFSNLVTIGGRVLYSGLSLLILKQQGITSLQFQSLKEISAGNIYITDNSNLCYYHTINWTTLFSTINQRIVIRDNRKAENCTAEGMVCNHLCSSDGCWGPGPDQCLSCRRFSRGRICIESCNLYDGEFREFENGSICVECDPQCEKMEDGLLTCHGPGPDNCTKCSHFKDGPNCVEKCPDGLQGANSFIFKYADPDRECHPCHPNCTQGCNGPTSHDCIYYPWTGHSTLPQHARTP

[2] = target: T2, human ErbB3 receptor on cells (human, UniProt P21860 20-1342); test: FACS on K562^erbB3 cells
T2 construct: whole, on cells; also called HER3; K562^erbB3 cells
T2 sequence (P21860 20-1342): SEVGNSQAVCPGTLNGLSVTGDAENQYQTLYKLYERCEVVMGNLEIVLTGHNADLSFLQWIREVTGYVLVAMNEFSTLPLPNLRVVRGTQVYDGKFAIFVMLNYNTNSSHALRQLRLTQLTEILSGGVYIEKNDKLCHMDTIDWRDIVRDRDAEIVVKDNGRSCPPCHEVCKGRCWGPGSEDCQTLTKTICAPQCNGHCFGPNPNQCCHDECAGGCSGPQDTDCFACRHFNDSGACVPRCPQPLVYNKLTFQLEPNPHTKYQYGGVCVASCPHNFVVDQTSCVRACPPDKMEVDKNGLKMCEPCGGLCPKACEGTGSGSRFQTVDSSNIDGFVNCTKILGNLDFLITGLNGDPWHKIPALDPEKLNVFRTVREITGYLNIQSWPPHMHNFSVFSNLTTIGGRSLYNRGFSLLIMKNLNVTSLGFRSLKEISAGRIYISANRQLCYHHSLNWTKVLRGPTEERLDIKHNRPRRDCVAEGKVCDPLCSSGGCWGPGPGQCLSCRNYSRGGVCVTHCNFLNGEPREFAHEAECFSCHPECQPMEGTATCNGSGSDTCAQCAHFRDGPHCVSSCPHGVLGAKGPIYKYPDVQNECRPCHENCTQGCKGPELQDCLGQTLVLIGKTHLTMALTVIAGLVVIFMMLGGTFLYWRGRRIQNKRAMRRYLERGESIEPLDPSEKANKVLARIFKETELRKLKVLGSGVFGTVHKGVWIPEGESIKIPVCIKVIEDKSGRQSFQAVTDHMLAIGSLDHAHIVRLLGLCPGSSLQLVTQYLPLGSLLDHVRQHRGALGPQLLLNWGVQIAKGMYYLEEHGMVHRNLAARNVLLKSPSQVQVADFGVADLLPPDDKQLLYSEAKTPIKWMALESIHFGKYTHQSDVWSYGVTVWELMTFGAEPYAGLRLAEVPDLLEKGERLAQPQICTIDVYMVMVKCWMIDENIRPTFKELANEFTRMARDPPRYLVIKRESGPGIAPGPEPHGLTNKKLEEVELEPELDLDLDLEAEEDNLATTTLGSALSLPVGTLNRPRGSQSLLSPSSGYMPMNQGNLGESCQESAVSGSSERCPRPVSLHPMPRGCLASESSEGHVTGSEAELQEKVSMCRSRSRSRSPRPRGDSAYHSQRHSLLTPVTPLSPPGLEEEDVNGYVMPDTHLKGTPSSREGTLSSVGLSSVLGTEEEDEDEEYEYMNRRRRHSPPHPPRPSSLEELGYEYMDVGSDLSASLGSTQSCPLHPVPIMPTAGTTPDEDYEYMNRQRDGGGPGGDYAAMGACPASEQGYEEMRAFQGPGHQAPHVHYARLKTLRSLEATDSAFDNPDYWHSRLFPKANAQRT
Procedure: (§1) In FIGS. 6A–6D, parental K562 cells (FIG. 6A) or K562 cells expressing either ErbB2 receptor (K562^erbB2 cells; FIG. 6B), ErbB3 receptor (K562^erbB3 cells; FIG. 6C) or ErbB4 receptor (K562^erbB4 cells; FIG. 6D) were examined for the expression of corresponding receptors. Cells were incubated with anti-ErbB2 receptor, anti-ErbB3 receptor or anti-ErbB4 receptor antibodies as indicated before PE-conjugated secondary antibody was added. "LOG PE" represents relative fluorescent intensity and "Counts" represents cell numbers. In FIGS. 6E–6H, NRG3^EGF.Fc is shown by FACS analysis to bind to ErbB4 receptor expressing cells. Parental K562 cells (FIG. 6E), K562^erbB2 cells (FIG. 6F), K562^erbB3 cells (FIG. 6G) and K562^erbB4 cells (FIG. 6H) were incubated with or without NRG3^EGF.Fc (containing gD tag) for 1 hour, followed by anti-gD-tag primary antibody and PE-conjugated secondary antibody.
(§2) C. FACS Analysis. For each binding reaction, 5×10^5 stably transfected K562 cells were suspended in PBS/2% BSA at 4° C. for 30 min followed by incubation with 5 µg of isolated, purified NRG3^EGF.Fc (MW 90 kDa) in a volume of 0.25 ml on ice for 60 min. 1 µg of primary antibody (anti-gD or anti-ErbB receptor) and secondary PE-conjugated (CALTAG, Calif., goat anti-mouse, 1:100 dilution) antibodies were added sequentially with 30–60 min incubation time and extensive washes before each addition. […]

[3] = target: T1, ErbB4.Fc; test: displacement of 125I-NRG3^EGF.Fc from immobilized ErbB4.Fc by unlabeled NRG3^EGF.Fc
Procedure: The displacement binding assays were performed in Maxisorp C 96-wells (Nunc, Naperville, Ill.). Goat anti-human antibody (Boehringer Mannheim, Germany) was coated on the plate at a concentration of 0.2 µg/well in 100 µl of 50 mM sodium carbonate buffer (pH 9.6) at 4° C., overnight. The plate was blocked by 1% BSA in TBST buffer (25 mM Tris, pH 7.5, 150 mM NaCl, 0.02% Tween 20) for 30 min at room temperature (RT). A soluble form of ErbB4 receptor was added at 15 ng/well in 1% BSA/TBST and incubated for 1.5 hr at RT. To prevent radiolabeled protein from interacting with residual goat anti-human antibodies, 1 µM of a humanized monoclonal antibody (rhuMAB HER2; Carter, P. et al. (1992) *Proc. Natl. Acad. Sci. USA* 89:4285–9) was added to the plate for 20 min and was included in the subsequent binding reaction.
The unbound material was washed by TBST extensively, and the bound radioactivity was counted on a Beckman IsoData gamma-counter (Smith-Kline Beckman, Pa.). Data was analyzed using a nonlinear regression computer program.

[4] = target: T3, human ErbB2 receptor on cells (human, UniProt P04626 23-1255); test: FACS on K562^erbB2 cells
T3 construct: whole, on cells; also called HER2; K562^erbB2 cells
Procedure: as §1, §2

Ki [1]: 1 nM
Molecule: NRG1^EGF (from UniProt Q02297 177-244) (ligand)

Ki [3]: 9 nM
B1: NRG3^EGF.Fc (Fc fusion)
chain: {gD epitope tag}-ERSEHFKPCRDKDLAYCLNDGECFVIETLTGSHKHCRCKEGYQGVRCDQFLPKTDSILSDP-{Fc (human IgG1)}
modifications: not fully specified
notes: Secreted from CHO cells, purified on protein A; MW 90 kDa; also called NRG3-EGF-Fc fusion protein; not shown: Fc portion of human IgG1
binding result [2]: no binding (tested: 5 µg in a volume of 0.25 ml)
binding result [4]: no binding (tested: 5 µg in a volume of 0.25 ml)
